B1: GST-14-3-3β (natural protein, UniProt P31946 1-246, looked up)
chain: MTMDKSELVQKAKLAEQAERYDDMAAAMKAVTEQGHELSNEERNLLSVAYKNVVGARRSSWRVISSIEQKTERNEKKQQMGKEYREKIEAELQDICNDVLELLDKYLIPNATQPESKVFYLKMKGDYFRYLSEVASGDNKQTTVSNSQQAYQEAFEISKKEMQPTHPIRLGLALNFSVFYYEILNSPEKACSLAKTAFDEAIAELDTLNEESYKDSTLIMQLLRDNLTLWTSENQGDEGDAGEGEN
notes: 14-3-3β, pGEX plasmid, gift of M. Yaffe; also called fusion of GSH S-transferase with 14-3-3β; source: E. coli, purified on glutathione resin (kept on the beads for pull-down; eluted with GSH and dialyzed for far-Western)
B2: GST-14-3-3ε (natural protein, UniProt P62258 1-255, looked up)
chain: MDDREDLVYQAKLAEQAERYDEMVESMKKVAGMDVELTVEERNLLSVAYKNVIGARRASWRIISSIEQKEENKGGEDKLKMIREYRQMVETELKLICCDILDVLDKHLIPAANTGESKVFYYKMKGDYHRYLAEFATGNDRKEAAENSLVAYKAASDIAMTELPPTHPIRLGLALNFSVFYYEILNSPDRACRLAKAAFDDAIAELDTLSEESYKDSTLIMQLLRDNLTLWTSDMQGDGEEQNKEALQDVEDENQ
notes: 14-3-3ε, pGEX plasmid, gift of M. Yaffe; also called fusion of GSH S-transferase with 14-3-3ε; source: E. coli, purified on glutathione resin (kept on the beads for pull-down; eluted with GSH and dialyzed for far-Western)
B3: GST-14-3-3ζ (natural protein, UniProt P63104 1-245, looked up)
chain: MDKNELVQKAKLAEQAERYDDMAACMKSVTEQGAELSNEERNLLSVAYKNVVGARRSSWRVVSSIEQKTEGAEKKQQMAREYREKIETELRDICNDVLSLLEKFLIPNASQAESKVFYLKMKGDYYRYLAEVAAGDDKKGIVDQSQQAYQEAFEISKKEMQPTHPIRLGLALNFSVFYYEILNSPEKACSLAKTAFDEAIAELDTLSEESYKDSTLIMQLLRDNLTLWTSDTQGDEAEAGEGGEN
notes: 14-3-3ζ, pGEX plasmid, gift of M. Yaffe; also called fusion of GSH S-transferase with 14-3-3ζ; source: E. coli, purified on glutathione resin (kept on the beads for pull-down; eluted with GSH and dialyzed for far-Western)
B4: GST-14-3-3σ (natural protein, UniProt P31947 1-248, looked up)
chain: MERASLIQKAKLAEQAERYEDMAAFMKGAVEKGEELSCEERNLLSVAYKNVVGGQRAAWRVLSSIEQKSNEEGSEEKGPEVREYREKVETELQGVCDTVLGLLDSHLIKEAGDAESRVFYLKMKGDYYRYLAEVATGDDKKRIIDSARSAYQEAMDISKKEMPPTNPIRLGLALNFSVFHYEIANSPEEAISLAKTTFDEAMADLHTLSEDSYKDSTLIMQLLRDNLTLWTADNAGEEGGEAPQEPQS
notes: 14-3-3σ, pGEX plasmid, gift of M. Yaffe; also called fusion of GSH S-transferase with 14-3-3σ; source: E. coli, purified on glutathione resin (kept on the beads for pull-down; eluted with GSH and dialyzed for far-Western)

Target: T1, DCBLD2-FLAG-MYC (full-length human Discoidin, CUB, and LCCL domain-containing protein 2) (human, UniProt Q96PD2 67-775)
T1 construct: DCBLD2, human, full-length cDNA in pCMV6-Entry (OriGene RC224483); Expressed alone or together with ABL-FLAG or FYN; also called ESDN; source: HEK 293, transfected, in lysate; immunoprecipitated (alpha-FLAG or alpha-MYC) for the zebrafish extract experiment and the far-Western; not shown: FLAG, C-terminal, kept; MYC, C-terminal, kept
T1 sequence (looked up): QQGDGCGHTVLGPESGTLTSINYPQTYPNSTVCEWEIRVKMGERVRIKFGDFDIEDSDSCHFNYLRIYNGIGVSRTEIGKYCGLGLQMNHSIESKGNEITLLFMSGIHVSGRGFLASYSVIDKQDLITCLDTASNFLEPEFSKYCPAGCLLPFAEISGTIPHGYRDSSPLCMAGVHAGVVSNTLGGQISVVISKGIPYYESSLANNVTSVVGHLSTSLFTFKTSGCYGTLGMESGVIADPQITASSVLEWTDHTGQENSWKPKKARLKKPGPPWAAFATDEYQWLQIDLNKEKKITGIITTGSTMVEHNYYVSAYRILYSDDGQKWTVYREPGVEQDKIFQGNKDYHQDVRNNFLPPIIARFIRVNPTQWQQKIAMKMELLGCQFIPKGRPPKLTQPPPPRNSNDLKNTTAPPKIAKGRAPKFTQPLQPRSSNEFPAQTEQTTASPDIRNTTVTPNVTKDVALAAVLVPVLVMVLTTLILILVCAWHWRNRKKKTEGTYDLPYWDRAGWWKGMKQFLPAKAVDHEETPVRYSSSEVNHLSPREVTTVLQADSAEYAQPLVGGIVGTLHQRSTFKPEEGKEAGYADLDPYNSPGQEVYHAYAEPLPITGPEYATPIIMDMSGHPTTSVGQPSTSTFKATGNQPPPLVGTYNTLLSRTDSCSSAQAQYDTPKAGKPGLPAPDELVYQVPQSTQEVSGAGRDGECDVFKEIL
Assay: pull-down; GST-14-3-3 fusions on GSH beads rocked at 4 C with lysates of 293 cells expressing DCBLD2-FLAG-MYC alone or with ABL-FLAG; washed 3x with BCLB; Western blotting (alpha-MYC for DCBLD2)
Conditions: one partner purified

| Binder | binding result |
| --- | --- |
| B1 | binds |
| B2 | binds |
| B3 | binds |
| B4 | binds |
